This note sets out measurements from the DeepSol protein solubility set.

This data set is described as follows: soluble on expression in E. coli; label from the status in PepcDB or PDB records.
As to “MAHHHHHHMPSDGEGKVQQVNIDEIDAVTGFKKAELYVWNAYAAAFLAEGGEPETDVEAWIDDFCQRSEESGAVFDRNFVKSVCTLGIYAGPRDEFQQRSGCGKATYASGDTYEGEFFEGKKHGRGQYIFVSKGRSEADRVVSKEVELLTSAGKDAKAMVTEIATKLQLGRHVVEGIMQYGQRPCYHGDYVRGKRTGRGVMKNKDGTLYQGEFLENKRHGQGVYYYLNGDVYSGNWKAGAKDGYGTYHFAEGSEYRGEWVRGNFVQGQWILQGGSYYEGKFDKKNRPLDDAASLHYPSIQMAQTGAFRRGIWAPTSALQVCSEVPVDGMAWAD”, the “soluble on expression in E. coli” value is “soluble”.
The result for “MSLDSIELMAKIHASARWSEAALQILADETRRILKHEAGTRAGEDPEQLHQMRVGIRRLRSALRLFEPALKLPKPARRRSLSPLAAVLGSVRDLDVQMEMLRERYLGALPEGEQQALERLLAHLESLRTQARSAMLRYLDGLDYEQFKSAYTEFLESPKFRRGADESLYHLLPAFLREALSTLWAHPGWEEPDVETMHDLRIAVKRVRYNLEFFLGCYGKAVRSLHGELKRIQEELGIIHDCDVLLGQLHTEPLGPATPWQQPFSRLTALVRNERRNAVRRFRRLKTRLLSEDMRNSLAVWVSWPGTADDEGHHHHHH” reads “not soluble”; that for “MSLGSNKTIIINLNNLEHNLNLIKNKIGEKEIVATLKGDAYGHGLINIFKFLKSKNINYFGLSNIEDAKTLKKIDKNIKILMYIKVDKKEIKNLIKFELVPFVSDFEYLFLIEKECALQKNKIKVHLKIDIGMNRYGIKIDDALEIATYIQNSKFLELEGICSHLPSIENFKTTQKQIEQFLFFLETLKQKNIHPKFVHISNSGHIINYKLNPQFNMVRPGLILYGYCQSEGHHHHHH”, “not soluble”; that for “MRLAFFGDVHGNFEALKAVLEDMENKGVDEVFCLGDLVGYGPDPEAVVQTIMEKNIKTIMGNYDDAVGYSKESCGCSYAPGRETEVGDISLKWSIENTSEKTREFLRNLPKKLSFEVEGVRFLLVHGSPLNELLEYVKPNTPPDRLKKIVESVEENVVVNGHTHLPMVKWVMGKLVLNPGSAGRPKDGDPRASYMIVDVENGTVSFEIVRVRYDVKTTVEKIARNGLPVELATVLALGQTFDMGPGKVTFTLGR”, “soluble”.
The result for “GMGYTLAEFLAHAIALETEAAERYVELADMMEAHNNLDTATVFRDMARFSTLHGDEIKQRSRALELPKLMSWQYRWKTPPEVGDENDIHYLMTPYHALRYARDNEIRGMEYYKEAAANSADPEVKRLGADFAAEEAEHVVALDKWIEKTPRPSITWSEDADPAQCVD” reads “soluble”; that for “MAHHHHHHMGTLEAQTQGPGSMRRVVVTGMGIVSSIGSNTEEVTASLREAKSGISRAEEYAELGFRCQVHGAPDIDIESLVDRRAMRFHGRGTAWNHIAMDQAIADAGLTEEEVSNERTGIIMGSGGPSTRTIVDSADITREKGPKRVGPFAVPKAMSSTASATLATFFKIKGINYSISSACATSNHCIGNAYEMIQYGKQDRMFAGGCEDLDWTLSVLFDAMGAMSSKYNDTPSTASRAYDKNRDGFVIAGGAGVLVLEDLETALARGAKIYGEIVGYGATSDGYDMVAPSGEGAIRCMKMALSTVTSKIDYINPHATSTPAGDAPEIEAIRQIFGAGDVCPPIAATKSLTGHSLGATGVQEAIYSLLMMQNNFICESAHIEELDPAFADMPIVRKRIDNVQLNTVLSNSFGFGGTNATLVFQRYQG”, “soluble”; that for “AQELYKNENAPVHERVMDLISRLTVEEKISLLRATSPGIPRLGIDKYYHGNEALHGVVRPGRFTVFPQAIGLAATWNPELQKRVATVISDEARARWNELDQGREQKEQFSDVLTFWSPTVNMARDPRWGRTPETYGEDPFLSGIMGTAFVNGLQGDDPHYLKIVSTPKHFAANNEEHNRFVCNPQISEKQLREYYFPAFEMCVKEGKAASIMSAYNALNDVPCTLNPWLLQKVLRQDWGFQGYVVSDCGGPALLVNAHKYVKTKEAAATLSIKAGLDLECGDDVYDGPLLNAYKQYMVSDADIDSAAYHVLTARMKLGLFDS”, “not soluble”.
“MSLTNIEEFMPEKLAKAIANPLFPELDSLLRSGRHVASEDLDNHALLCEFEHELGLFYQRYNAELVKAPEGFFYLRPRSTSFIARSVLAEIDMLVGKVLCFLYLSPERLAHEGIFTNQELFDELLVLADEQKLMKLVTNRASGSDLDKEKLFDKVRTSLRRLKRLGMIIPVGEQGKFRISEAVFRFGADVRTSDDMKEAQLRLIRDGEAVVVHQEEASQSSLDLDADSNEKPAEEQHELELEGDLLEHHHHHH”: the “soluble on expression in E. coli” value is given as “soluble”.
To “MIITQGPQFQGKASKRLHVMAKPIGAVCNIDCSYCYYLSKEDLLEYKKGCSPQMDDETLETYIRQYIEGQNTPEIIFSWQGGEPTLLGLDYFKKIVEFQKKYQPEGILISNDLQTNGTLLTDKWCEFLAENNFLVGLSIDGPEMLHNAYRTNKAGRGTFKQVMNAVELLHKHNVKFATLTCVNNLTSRNPLEVYRFLRDVVKSPQMQFIPIVEQKTFRTVAPQTEQIAAQLRQGDKRLIPGNKESIMEPWCVSDEAWGNFLIAVFDEWTQHDLGKVFVQYFEASVETWMGRKNPLCTLGEICGKGLAMEHNGDVFACDHYVYPEYKIGNIHNEELDTLAFSRKQQEFGFAKSKTLTTQCQKCEYKFACHGECPKNRFIKTRDGEPGLNYLCAGWKKFFAHADKSIAYILKMLGNPVQHGKYSDAKMQQVHQNAFPTKF” belongs “not soluble”; to “MRSKRFEALAKRPVNQDGFVKEWIEEGFIAMESPNDPKPSIKIVNGAVTELDGKPVSDFDLIDHFIARYGINLNRAEEVMAMDSVKLANMLCDPNVKRSEIVPLTTAMTPAKIVEVVSHMNVVEMMMAMQKMRARRTPSQQAHVTNVKDNPVQIAADAAEGAWRGFDEQETTVAVARYAPFNAIALLVGSQVGRPGVLTQCSLEEATELKLGMLGHTCYAETISVYGTEPVFTDGDDTPWSKGFLASSYASRGLKMRFTSGSGSEVQMGYAEGKSMLYLEARCIYITKAAGVQGLQNGSVSCIGVPSAVPSGIRAVLAENLICSSLDLECASSNDQTFTHSDMRRTARLLMQFLPGTDFISSGYSAVPNYDNMFAGSNEDAEDFDDYNVIQRDLKVDGGLRPVREEDVIAIRNKAARALQAVFAGMGLPPITDEEVEAATYAHGSKDMPERNIVEDIKFAQEIINKNRNGLEVVKALAQGGFTDVAQDMLNIQKAKLTGDYLHTSAIIVGDGQVLSAVNDVNDYAGPATGYRLQGERWEEIKNIPGALDPNEID”, “soluble”.
To “DGYHLLQELGAIELAGDGEAAEAGGGGAAFRLTRTGQELAKLPVDPRIGRMILAAREQQCLAEMLIIAAALSVQDPRDRPMAEREAAESAHAKFADDKSEFLSFL” belongs “not soluble”; to “GPGSMTVVTTESGLKYEDLTEGSGAEARAGQTVSVHYTGWLTDGQKFDSSKDRNDPFAFVLGGGMVIKGWDEGVQGMKVGGVRRLTIPPQLGYGARGAGGVIPPNATLVFEVELLDV”, “soluble”.
The result for “MAHHHHHHMHVKHRATGRVVATLPFEPMPTLEDVSDAFIKAESTTATTHTGDLTVPTAYDNAEEDVDGAEEGETMYAVVYDLVTPTAPGDNGDSELAAAVTAAGLLENLPADADGTCNIGETMRKLVELGAAELLTAEPLSVSQARREYNPPEAPGLLRRIVYPASQYSPYRLDRDPLHTDKLSFYRSSTVTASVPSGPPPTSCTGLHALPVWDYGEGGLYTSYFDSYDLSCPMRGPFVRPSAAGKAALVMPLSDEEHHRIFGA” reads “soluble”; that for “MGSDKIHHHHHHMREKLFWILKKYGVSDHIAKAFLEIPREEFLTKSYPLSYVYEDIVLVSYDDGEEYSTSSQPSLMALFMEWVGLDKGMRVLEIGGGTGYNAAVMSRVVGEKGLVVSVEYSRKICEIAKRNVERLGIENVIFVCGDGYYGVPEFSPYDVIFVTVGVDEVPETWFTQLKEGGRVIVPINLKLSRRQPAFLFKKKDPYLVGNYKLETRFITAGGNLGNLLERNRKLLREFPFNREILLVRSHIFVELVDLLTRRLTEIDGTFYYAGPNGVVEFLDDRMRIYGDAPEIENLLTQWESCGYRSFEYLMLHVGYNAFSHISCSI”, “not soluble”; that for “VPPPGTMVMVERKVGSWVDGQPIDLQRDWRSWEQLPDSLKVAVIAGEDQHFAEHHGFDLPAIQQALAHNERGGSIRGASTLSQQVAKNVFLWSGRSWLRKGLEAWFTLLIETLWTKQRILEVYLNSAEWGPGVFGAQAAARYHFGLDAERLSRTQASQLAAVLPSPLKWSAARPGPYVRQRAAWIRQQMWQLGGDDYLLRLER”, “not soluble”.
